Test results taken from EP4538286A1 (Adlai Nortye Biopharma Co., Ltd., dated 2025).

Experiments:
[1] = target: PD-L1 on TCR activator PD-L1-CHO cells (UniProt Q9NZQ7 19-290, limits assumed); test: cell-based or functional assay
human CD28 protein = target: T1, human CD28 protein (human, UniProt P10747 19-152); test: ELISA, plate-coated human CD28; design: binding strength @ 100nM: reference not given here
T1 construct: bought protein coated on the ELISA plate; also called human CD28 antigen

human CTLA4 protein = target: T2, human CTLA4 protein (human, UniProt P16410 37-162, limits assumed); test: ELISA, plate-coated human CTLA4
T2 construct: bought protein coated on the ELISA plate; also called human CTLA4 antigen
T2 sequence (looked up): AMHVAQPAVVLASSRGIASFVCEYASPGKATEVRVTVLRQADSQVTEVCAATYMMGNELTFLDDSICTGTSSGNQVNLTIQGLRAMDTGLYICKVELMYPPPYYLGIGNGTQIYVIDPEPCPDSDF

Sequence of PD-L1 on TCR activator PD-L1-CHO cells (Q9NZQ7 19-290 limits assumed): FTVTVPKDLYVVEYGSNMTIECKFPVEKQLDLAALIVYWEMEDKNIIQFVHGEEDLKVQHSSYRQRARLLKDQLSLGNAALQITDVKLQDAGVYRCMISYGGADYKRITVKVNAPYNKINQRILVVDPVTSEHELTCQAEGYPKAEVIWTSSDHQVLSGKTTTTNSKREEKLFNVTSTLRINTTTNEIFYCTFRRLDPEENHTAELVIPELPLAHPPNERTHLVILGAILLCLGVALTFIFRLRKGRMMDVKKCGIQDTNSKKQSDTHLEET
T1 sequence (P10747 19-152 limits assumed): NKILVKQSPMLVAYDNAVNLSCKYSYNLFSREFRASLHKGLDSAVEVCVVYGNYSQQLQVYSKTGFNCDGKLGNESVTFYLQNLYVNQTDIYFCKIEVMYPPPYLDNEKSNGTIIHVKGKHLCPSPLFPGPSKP

| Binder | EC50(nM), Jurkat-NFAT-Luc/CHO-PDL1 [1] | The highest induction relative to 10 nM sugemalimab [1] | EC50 (human CD28 protein) | binding strength @ 100nM (human CD28 protein) | EC50 (human CTLA4 protein) | binding strength @ 20nM (human CTLA4 protein) | binding result (human CTLA4 protein) |
| --- | --- | --- | --- | --- | --- | --- | --- |
| Abs-365 (other, CD80 IgV mutant fused to the N-terminus of the sugemalimab heavy chain; also called CD80 IgV mutant E35T/A71E-sugemalimab fusion) heavy: VIHVTKEVKEVATLSCGHNVSVEELAQTRIYWQKTKKMVLTMMSGDMNIWPEYKNRTIFDITNNLSIVILELRPSDEGTYECVVLKYEKDAFKREHLAEVTLSVKADGGGGSGGGGSGGGGSGGGGSGEVQLLESGGGLVQPGGSLRLSCAASGFTFSSYAMSWVRQAPGKGLEWVSGISGSGGFTYYADSVKGRFTISRDNSKNTLYLQMNSLRAEDTAVYYCAKPPRGYNYGPFDYWGQGTLVTVSSASTKGPSVFPLAPCSRSTSESTAALGCLVKDYFPEPVTVSWNSGALTSGVHTFPAVLQSSGLYSLSSVVTVPSSSLGTKTYTCNVDHKPSNTKVDKRVESKYGPPCPPCPAPEFLGGPSVFLFPPKPKDTLMISRTPEVTCVVVDVSQEDPEVQFNWYVDGVEVHNAKTKPREEQFNSTYRVVSVLAVLHQDWLNGKEYKCKVSNKGLPSSIEKTISKAKGQPREPQVYTLPPSQEEMTKNQVSLTCLVKGFYPSDIAVAWESNGQPENNYKTTPPVLDSDGSFFLYSRLTVDKSRWQEGNVFSCSVMHEALHAHYTQKSLSLSLGK light: SYVLTQPPSVSVAPGQTARITCGGNNIGSKSVHWYQQKPGQAPVLVVYDDSDRPSGIPERFSGSNSGNTATLTISRVEAGDEADYYCQVWDSSSDHVVFGGGTKLTVLGQPKAAPSVTLFPPSSEELQANKATLVCLISDFYPGAVTVAWKADSSPVKAGVETTTPSKQSNNKYAASSYLSLTPEQWKSHRSYSCQVTHEGSTVEKTVAPTECS | 2.75 nM | 129% | 27.9 nM | 857% | 24.7 nM | 400% |  |
| Abs-367 (other, the paragraph that names the antibody is followed; also called CD80 IgV mutant E35T/A71Q-sugemalimab fusion) heavy: VIHVTKEVKEVATLSCGHNVSVEELAQTRIYWQKTKKMVLTMMSGDMNIWPEYKNRTIFDITNNLSIVILQLRPSDEGTYECVVLKYEKDAFKREHLAEVTLSVKADGGGGSGGGGSGGGGSGGGGSGEVQLLESGGGLVQPGGSLRLSCAASGFTFSSYAMSWVRQAPGKGLEWVSGISGSGGFTYYADSVKGRFTISRDNSKNTLYLQMNSLRAEDTAVYYCAKPPRGYNYGPFDYWGQGTLVTVSSASTKGPSVFPLAPCSRSTSESTAALGCLVKDYFPEPVTVSWNSGALTSGVHTFPAVLQSSGLYSLSSVVTVPSSSLGTKTYTCNVDHKPSNTKVDKRVESKYGPPCPPCPAPEFLGGPSVFLFPPKPKDTLMISRTPEVTCVVVDVSQEDPEVQFNWYVDGVEVHNAKTKPREEQFNSTYRVVSVLAVLHQDWLNGKEYKCKVSNKGLPSSIEKTISKAKGQPREPQVYTLPPSQEEMTKNQVSLTCLVKGFYPSDIAVAWESNGQPENNYKTTPPVLDSDGSFFLYSRLTVDKSRWQEGNVFSCSVMHEALHAHYTQKSLSLSLGK light: SYVLTQPPSVSVAPGQTARITCGGNNIGSKSVHWYQQKPGQAPVLVVYDDSDRPSGIPERFSGSNSGNTATLTISRVEAGDEADYYCQVWDSSSDHVVFGGGTKLTVLGQPKAAPSVTLFPPSSEELQANKATLVCLISDFYPGAVTVAWKADSSPVKAGVETTTPSKQSNNKYAASSYLSLTPEQWKSHRSYSCQVTHEGSTVEKTVAPTECS | 1.84 nM | 113% | 27.7 nM | 700% | 26.5 nM | 640% |  |
| Abs-368 (other, the paragraph that names the antibody is followed; also called CD80 IgV mutant E35T/A71T-sugemalimab fusion) heavy: VIHVTKEVKEVATLSCGHNVSVEELAQTRIYWQKTKKMVLTMMSGDMNIWPEYKNRTIFDITNNLSIVILTLRPSDEGTYECVVLKYEKDAFKREHLAEVTLSVKADGGGGSGGGGSGGGGSGGGGSGEVQLLESGGGLVQPGGSLRLSCAASGFTFSSYAMSWVRQAPGKGLEWVSGISGSGGFTYYADSVKGRFTISRDNSKNTLYLQMNSLRAEDTAVYYCAKPPRGYNYGPFDYWGQGTLVTVSSASTKGPSVFPLAPCSRSTSESTAALGCLVKDYFPEPVTVSWNSGALTSGVHTFPAVLQSSGLYSLSSVVTVPSSSLGTKTYTCNVDHKPSNTKVDKRVESKYGPPCPPCPAPEFLGGPSVFLFPPKPKDTLMISRTPEVTCVVVDVSQEDPEVQFNWYVDGVEVHNAKTKPREEQFNSTYRVVSVLAVLHQDWLNGKEYKCKVSNKGLPSSIEKTISKAKGQPREPQVYTLPPSQEEMTKNQVSLTCLVKGFYPSDIAVAWESNGQPENNYKTTPPVLDSDGSFFLYSRLTVDKSRWQEGNVFSCSVMHEALHAHYTQKSLSLSLGK light: SYVLTQPPSVSVAPGQTARITCGGNNIGSKSVHWYQQKPGQAPVLVVYDDSDRPSGIPERFSGSNSGNTATLTISRVEAGDEADYYCQVWDSSSDHVVFGGGTKLTVLGQPKAAPSVTLFPPSSEELQANKATLVCLISDFYPGAVTVAWKADSSPVKAGVETTTPSKQSNNKYAASSYLSLTPEQWKSHRSYSCQVTHEGSTVEKTVAPTECS | 0.52 nM | 138% | 28.7 nM | 700% |  |  | no binding |
